From publication PMC10184639

Target: biotinylated CH848 DS SOSIP Trimer (HIV-1)
Experiment: SPR

B1: DH270.I5.6 Fab (Fab, V domains shown)
VH: QVQLVQSGAEVKKPGASVKVSCKASGYTFTDYYIHWVRQAPGQGLEWMGWINPNTGRTNSAQKFQGRVTMTRDTSISTAYMELSRLRSDDTAVYYCARGGWIGLYYDSSGYPNFDYWGQGTLVTVSS
VL: QSALTQPASVSGSPGQSITISCTGTSYDVGSYNLVSWYQQHPGKAPKLMIYEVSKRPSGVSNRFSGSKSGNTASLTISGLQAEDEADYYCCSYAGSSTVVFGGGTKLTVL
- fold improvement of the binding affinity relative to the UCA: 8 fold
